Starred links: 1 amine or outer side, 2 acyl side, 3 side chain; linkers in the order of their positions; H or OH if unused. Positions of bridges follow the written chain, without caps; N, C: chain ends. Non-standard residues stand in square brackets, D forms with d. Primed or numbered codes have the meaning given here. PyrS2″ = (S)-3-amino-1-((pent-4-en-1-yloxy)carbonyl)pyrrolidine-3-carboxylic acid (stapling residue), C=CCCCOC(=O)N1CC[C@@](N[*:1])(C(=O)[*:2])C1; B5(4) = 2,2-bis(4-pentenyl)glycine = 2-amino-2-(pent-4-en-1-yl)hept-6-enoic acid (stitching residue), C=CCCCC(CCCC=C)(N[*:1])C(=O)[*:2]; B5(3) = 2,2-bis(4-pentenyl)glycine (stitching residue), C=CCCCC(CCCC=C)(N[*:1])C(=O)[*:2]; Phe(3-COOH) = N[C@@H](Cc1cccc(C(=O)O)c1)C(=O)O; 2F3MeF = Cc1cccc(C[C@H](N[*:1])C(=O)[*:2])c1F; Bta = N[C@@H](Cc1csc2ccccc12)C(=O)O; Lys(iPr) = CC(C)NCCCC[C@H](N)C(=O)O; αAllylPro = C=CC[C@@]1(C(=O)O)CCCN1; tBuAla = CC(C)(C)C[C@H](N)C(=O)O; 3Thi = N[C@@H](Cc1ccsc1)C(=O)O; PyrS2(4) = not defined here
T1: beta-catenin in DLD1 TCF/LEF luciferase reporter cells (UniProt P35222 1-781)
T1 sequence (looked up): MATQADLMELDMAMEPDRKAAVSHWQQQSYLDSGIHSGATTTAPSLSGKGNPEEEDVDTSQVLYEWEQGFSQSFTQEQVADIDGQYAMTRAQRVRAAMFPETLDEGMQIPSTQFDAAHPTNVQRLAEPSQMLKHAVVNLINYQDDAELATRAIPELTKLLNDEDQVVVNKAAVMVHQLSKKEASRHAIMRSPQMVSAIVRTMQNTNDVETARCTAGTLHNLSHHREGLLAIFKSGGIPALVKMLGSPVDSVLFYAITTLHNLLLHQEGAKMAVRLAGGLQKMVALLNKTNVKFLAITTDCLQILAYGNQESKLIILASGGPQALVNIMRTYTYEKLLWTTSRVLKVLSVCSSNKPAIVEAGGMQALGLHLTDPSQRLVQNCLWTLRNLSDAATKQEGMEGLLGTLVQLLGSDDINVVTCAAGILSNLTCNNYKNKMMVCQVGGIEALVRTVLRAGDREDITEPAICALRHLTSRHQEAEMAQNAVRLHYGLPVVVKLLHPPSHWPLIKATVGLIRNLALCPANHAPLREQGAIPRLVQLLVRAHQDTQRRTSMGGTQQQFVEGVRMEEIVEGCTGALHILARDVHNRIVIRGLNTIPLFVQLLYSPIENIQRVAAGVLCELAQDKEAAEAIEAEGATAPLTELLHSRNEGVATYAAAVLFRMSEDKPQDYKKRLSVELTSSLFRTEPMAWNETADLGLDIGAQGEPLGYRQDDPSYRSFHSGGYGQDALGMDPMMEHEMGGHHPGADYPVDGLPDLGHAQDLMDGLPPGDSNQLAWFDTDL

T2: B-cat-Halo (UniProt P35222 1-781)
T2 sequence (looked up): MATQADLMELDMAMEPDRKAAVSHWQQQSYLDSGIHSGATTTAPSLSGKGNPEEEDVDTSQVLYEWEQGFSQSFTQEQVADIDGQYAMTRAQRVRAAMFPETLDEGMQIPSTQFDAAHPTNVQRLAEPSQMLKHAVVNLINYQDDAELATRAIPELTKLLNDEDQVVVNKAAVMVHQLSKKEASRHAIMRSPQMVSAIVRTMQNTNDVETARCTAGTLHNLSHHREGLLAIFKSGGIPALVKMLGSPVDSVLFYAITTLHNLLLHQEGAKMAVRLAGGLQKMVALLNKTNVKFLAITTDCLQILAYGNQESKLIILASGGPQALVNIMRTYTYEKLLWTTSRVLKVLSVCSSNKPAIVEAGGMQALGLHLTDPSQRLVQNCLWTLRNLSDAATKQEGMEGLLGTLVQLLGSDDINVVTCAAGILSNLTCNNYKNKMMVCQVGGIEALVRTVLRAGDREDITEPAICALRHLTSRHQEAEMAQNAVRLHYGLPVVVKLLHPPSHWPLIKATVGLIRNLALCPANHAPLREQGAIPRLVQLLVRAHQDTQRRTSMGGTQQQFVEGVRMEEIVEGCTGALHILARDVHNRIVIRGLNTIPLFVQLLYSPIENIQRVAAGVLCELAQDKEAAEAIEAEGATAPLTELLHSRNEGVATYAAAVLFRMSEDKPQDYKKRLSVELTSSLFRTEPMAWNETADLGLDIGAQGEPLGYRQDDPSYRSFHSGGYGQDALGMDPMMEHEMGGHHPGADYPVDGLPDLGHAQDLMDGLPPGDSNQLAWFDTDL

T3: beta-catenin in DLD1 TCF/LEF luciferase reporter cells (UniProt P35222 2-781)
T3 sequence (looked up): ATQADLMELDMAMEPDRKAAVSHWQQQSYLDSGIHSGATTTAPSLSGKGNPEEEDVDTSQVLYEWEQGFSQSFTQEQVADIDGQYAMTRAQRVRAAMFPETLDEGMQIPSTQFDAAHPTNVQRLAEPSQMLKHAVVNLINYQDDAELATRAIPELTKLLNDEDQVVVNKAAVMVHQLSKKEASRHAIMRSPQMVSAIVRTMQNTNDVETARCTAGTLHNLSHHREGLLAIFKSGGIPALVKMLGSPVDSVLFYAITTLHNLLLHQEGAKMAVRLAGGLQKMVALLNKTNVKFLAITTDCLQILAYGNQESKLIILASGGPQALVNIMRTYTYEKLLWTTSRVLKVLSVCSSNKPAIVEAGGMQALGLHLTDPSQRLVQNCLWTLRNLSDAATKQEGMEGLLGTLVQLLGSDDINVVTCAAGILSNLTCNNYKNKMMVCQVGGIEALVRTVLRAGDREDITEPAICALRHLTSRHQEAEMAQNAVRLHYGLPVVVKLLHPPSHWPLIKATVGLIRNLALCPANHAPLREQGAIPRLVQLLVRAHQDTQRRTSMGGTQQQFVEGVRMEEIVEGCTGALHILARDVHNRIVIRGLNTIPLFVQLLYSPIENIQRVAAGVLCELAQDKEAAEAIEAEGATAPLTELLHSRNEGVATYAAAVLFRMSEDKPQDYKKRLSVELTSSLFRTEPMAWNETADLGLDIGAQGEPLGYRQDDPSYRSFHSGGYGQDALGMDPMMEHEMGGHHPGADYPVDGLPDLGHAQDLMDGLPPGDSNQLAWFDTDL


Key:
Experiment in all cases: cell-based or functional assay
[1] = molecular target: T1, beta-catenin in DLD1 TCF/LEF luciferase …
B-cat-Halo = molecular target: T2, B-cat-Halo
[2] = molecular target: T3, beta-catenin in DLD1 TCF/LEF luciferase …

| DLD1 4% Abs IC50 [1] [nM] | NanoBRET Abs IC50 (B-cat-Halo) [nM] | DLD1 4% Abs IC50 [2] [nM] | Binder |
| --- | --- | --- | --- |
| 700 | – | – | Ac-[αAllylPro]D[tBuAla][B5(4)]D[Phe(3-COOH)]AAFL[PyrS2(4)][2F3MeF][Bta]Q-NH2 (staple 1-4, 4-11; not fully specified; printed as Ac-PL3-Asp-Npg-B5-Asp-3COOHF-Ala-Ala-Phe-Leu-PyrS2-2F3MeF-BztA-Gln-NH2; reading uncertain) [I-1466] |
| – | 6500 | 2600 | Ac-[αAllylPro]D[tBuAla][B5(3)]D[(Pfbn)GA]AAFL[PyrS2″][3Thi][Bta]Q-NH2 (staple 1-4, 4-11) [I-1632] |
| – | 4500 | 2800 | Ac-[αAllylPro]D[tBuAla][B5(3)]D[Phe(3-COOH)]AAFL[PyrS2(4)][2F3MeF][Bta][Lys(iPr)]-NH2 (staple 1-4, 4-11; not fully specified; printed as Ac-PL3-Asp-Npg-B5-Asp-3COOHF-Ala-Ala-Phe-Leu-PyrS2-2F3MeF-BztA-iPrLys-NH2; reading uncertain) [I-1616] |
